Molecular target: T1, TLR10 (Homo sapiens, UniProt Q9BXR5)
T1 sequence (Q9BXR5 20-576): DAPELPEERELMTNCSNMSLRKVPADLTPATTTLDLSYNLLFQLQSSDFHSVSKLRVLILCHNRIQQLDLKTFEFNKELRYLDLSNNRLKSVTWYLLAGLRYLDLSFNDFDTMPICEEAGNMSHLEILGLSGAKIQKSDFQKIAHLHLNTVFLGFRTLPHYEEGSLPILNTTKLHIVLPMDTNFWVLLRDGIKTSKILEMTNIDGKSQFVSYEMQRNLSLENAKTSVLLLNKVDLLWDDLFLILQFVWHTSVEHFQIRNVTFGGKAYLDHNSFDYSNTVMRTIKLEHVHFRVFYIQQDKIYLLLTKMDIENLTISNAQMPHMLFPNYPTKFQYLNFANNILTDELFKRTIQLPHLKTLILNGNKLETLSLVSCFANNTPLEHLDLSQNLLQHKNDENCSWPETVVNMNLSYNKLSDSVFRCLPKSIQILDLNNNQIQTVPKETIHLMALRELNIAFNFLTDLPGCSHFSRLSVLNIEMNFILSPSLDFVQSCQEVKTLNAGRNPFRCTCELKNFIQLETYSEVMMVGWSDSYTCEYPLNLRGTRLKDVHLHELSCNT
Assay: mRNA display affinity selection against TLR10, NGS abundance
Format: binding
Design: Chimera protein (extracellular domain, amino acid 20-576;); Fc (chimera); purchased R&D system #6619-TR-050
Details: Top100 selection hits, NGS

Sequence | Library fraction (TLR10 selection pulldown (+)) | Raw reads (TLR10 selection pulldown (+)) | Library fraction (TLR10 selection pulldown (-)) | Raw reads (TLR10 selection pulldown (-))
SIEGMHVVIV | 0.00022 | 21 | – | –
TMQFPLQRRMAI | 0.00468 | 456 | 0.002 | 241
AQMYPIQNKIAF | 0.00064 | 62 | 0.00063 | 75
STKNQYGGWSPA | 0.00034 | 33 | – | –
LGNVYIRSS | 0.00075 | 73 | – | –
SRTNRFGGHMAS | 0.168 | 16419 | 0.008 | 995
TILFSLQNVRAF | 0.00137 | 134 | 0.0033 | 394
AMKLSARYIAF | – | – | 0.00072 | 86
CNPYRGNIGW | 0.006 | 614 | 0.016 | 1871
TIELTHAYLH | – | – | 0.00054 | 64
SMEFVKIPLVIH | 0.00041 | 40 | – | –
SMLLPMQRVVMF | 0.00018 | 18 | – | –
SNIVWCGQGIIG | 0.168 | 16419 | 0.077 | 9156
RNPYSGNIAI | 0.00557 | 543 | 0.00067 | 80
SIMFALQQKLLF | 0.004 | 389 | 0.00189 | 226
MMSRGMRWVL | 0.00019 | 19 | – | –
IGKVYVHSS | – | – | 0.00092 | 110
TLELQSVVLH | 0.00033 | 32 | – | –
CIIFVRQNKCAF | – | – | 0.00053 | 63
CMIFHTQLKIAF | 0.00053 | 52 | 0.004 | 470
SFMFFSQRKLAF | 0.00034 | 33 | – | –
SLELKHIVFH | – | – | 0.00222 | 265
STIVFKHQQISG | 0.00018 | 18 | – | –

Sequence | Library fraction (TLR10 selection pulldown (+)) | Raw reads (TLR10 selection pulldown (+)) | Library fraction (TLR10 selection pulldown (-)) | Raw reads (TLR10 selection pulldown (-))
TNPYGGNVGW | 0.143 | 13980 | 0.238 | 28345
SNSNRYGGLITS | 0.045 | 4431 | 0.005 | 582
FRGVLIRSS | 0.00018 | 18 | – | –
TIRFTNQNKIAF | 0.038 | 3740 | 0.095 | 11292
IGLVRVVSS | – | – | 0.00658 | 785
SSTVWKLQTICG | – | – | 0.00046 | 55
AIYNRYGGNIAS | – | – | 0.00153 | 182
TMHFSNQRKLVF | 0.00022 | 21 | – | –
SHYFAFQKKLAF | – | – | 0.00125 | 149
TMMFPRLGKVAY | 0.00528 | 515 | 0.003 | 351
AVEFRLQRAIAY | 0.00163 | 159 | 0.00093 | 111
SITFPMQRHIAF | – | – | 0.00112 | 133
RIETARLVIL | 0.00074 | 72 | 0.00141 | 168
GCLHGNVPVYY | 0.00224 | 218 | 0.00272 | 324
IGLVRIKSS | 0.0012 | 117 | 0.00155 | 185
TMLFRLQSKLAI | – | – | 0.013 | 1571
STLFFMFQGIRG | 0.00019 | 19 | – | –
SLEFPHLVIH | 0.00028 | 27 | – | –
STHIYSKQGIRG | 0.004 | 409 | 0.001 | 116
GVGNRYGGHAGT | – | – | 0.0009 | 107
IGRVWVQSS | – | – | 0.002 | 250
AINFELTNKIAF | 0.008 | 804 | 0.013 | 1556
GLLHGNVPTWI | – | – | 0.002 | 232

Sequence | Library fraction (TLR10 selection pulldown (+)) | Raw reads (TLR10 selection pulldown (+)) | Library fraction (TLR10 selection pulldown (-)) | Raw reads (TLR10 selection pulldown (-))
SILFSIQNKLVL | 0.00021 | 20 | – | –
SVIFNLLRQVAY | 0.00017 | 17 | – | –
ANYHGNVPWSC | – | – | 0.00047 | 56
RILFPLQNSIAF | 0.00041 | 40 | – | –
CVLVNNRYLVH | 0.00056 | 55 | – | –
SVDFGQVVIH | – | – | 0.00054 | 65
CVHFCWQRKLAY | – | – | 0.00152 | 181
ICFVYVRSS | 0.00028 | 27 | – | –
SRTIYRCQSIRG | 0.008 | 777 | 0.00125 | 149
MIRMDRLRVL | 0.00023 | 22 | – | –
SKIIWSNQAIRG | – | – | 0.007 | 798
CMSFYLQRKIAI | – | – | 0.00142 | 169
GTGLNRYGGINY | 0.023 | 2231 | 0.00739 | 882
RIETRCYVLH | – | – | 0.0006 | 72
SITFQTLNKIAY | – | – | 0.006 | 714
SFTFALQRRIAY | – | – | 0.0006 | 71
AEIHAWGLRI | – | – | 0.00117 | 139
SIKFVFQGKLAI | 0.00046 | 45 | – | –
TMMFPHQRKLAF | – | – | 0.009 | 1056
TMFFRRQNAMAL | 0.00074 | 72 | – | –
CLPFPLQMRIAY | 0.00022 | 21 | – | –
SKQVYHKQTIVG | 0.00063 | 61 | – | –

From paper PMC10683472, “Deep Learning-Driven Library Design for the De Novo Discovery of Bioactive Thiopeptides” (ACS Central Science, 2023)
